In data set [1] the test system is HeLa Kyoto. Nature of the data set: solubility change mitosis vs G1/S (difference of NP-40 vs SDS log2 ratios) (log2 ratio difference); higher = more soluble in mitosis.
Data set [2] deals with HeLa Kyoto. In words: melting temperature (median over replicates), in situ; higher = more thermally stable.
The test system of data set [3] is HeLa Kyoto. In words: solubility in G1/S (NP-40 vs SDS abundance) (log2 ratio); higher = more soluble. The note with it: cell cycle stage: G1/S.
The subject of data set [4] is HeLa Kyoto. Nature of the data set: thermal stability score vs G1/S (z-score of summed log2 fold changes over temperatures); higher = more thermally stable than in G1/S.
[5] abbreviates: cell cycle stage: early G1 (4.5 h after nocodazole release).
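For melting temperature (median over replicates), in situ in this document: HeLa Kyoto cells synchronized by double thymidine or nocodazole block, proteins quantified by TMT10plex mass spectrometry, three independent biological replicates.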
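For solubility change mitosis vs G1/S (difference of NP-40 vs SDS log2 ratios) in this document: synchronized HeLa Kyoto cells (double thymidine block for G1/S, nocodazole release for mitosis), protein amounts in NP-40 versus SDS lysates quantified by mass spectrometry, three biological replicates.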
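For solubility in G1/S (NP-40 vs SDS abundance) in this document: HeLa Kyoto cells arrested at G1/S by double thymidine block, proteins quantified by TMT10plex mass spectrometry in mild NP-40 versus SDS extracts, three biological replicates.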
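For thermal stability score vs G1/S (z-score of summed log2 fold changes over temperatures) in this document: synchronized HeLa Kyoto cells, proteins quantified by TMT10plex mass spectrometry, three biological replicates, mitosis taken 0.5 h after nocodazole release, G1/S directly after double thymidine block.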

In the case of “MKSLKSRLRRQDVPGPASSGAAAASAHAADWNKYDDRLMKAAERGDVEKVTSILAKKGVNPGKLDVEGRSVFHVVTSKGNLECLNAILIHGVDITTSDTAGRNALHLAAKYGHALCLQKLLQYNCPTEHADLQGRTALHDAAMADCPSSIQLLCDHGASVNAKDVDGRTPLVLATQMSRPTICQLLIDRGADVNSRDKQNRTALMLGCEYGCRDAVEVLIKNGADISLLDALGHDSSYYARIGDNLDILTLLKTASENTNKGRELWKKGPSLQQRNLTHMQDEVNVKSHQREHQNIQDLEIENEDLKERLRKIQQEQRILLDKVNGLQLQLNEEVMVADDLESEREKLKSLLAAKEKQHEESLRTIEALKNRFKYFESDHLGSGSHFSNRKEDMLLKQGQMYMADSQCTSPGIPAHMQSRSMLRPLELSLPSQTSYSENEILKKELEAMRTFCESAKQDRLKLQNELAHKVAECKALALECERVKEDSDEQIKQLEDALKDVQKRMYESEGKVKQMQTHFLALKEHLTSEAASGNHRLTEELKDQLKDLKVKYEGASAEVGKLRNQIKQNEMIVEEFKRDEGKLIEENKRLQKELSMCEMEREKKGRKVTEMEGQAKELSAKLALSIPAEKFENMKSSLSNEVNEKAKKLVEMEREHEKSLSEIRQLKRELENVKAKLAQHVKPEEHEQVKSRLEQKSGELGKKITELTLKNQTLQKEIEKVYLDNKLLKEQAHNLTIEMKNHYVPLKVSEDMKKSHDAIIDDLNRKLLDVTQKYTEKKLEMEKLLLENDSLSKDVSRLETVFVPPEKHEKEIIALKSNIVELKKQLSELKKKCGEDQEKIHALTSENTNLKKMMSNQYVPVKTHEEVKMTLNDTLAKTNRELLDVKKKFEDINQEFVKIKDKNEILKRNLENTQNQIKAEYISLAEHEAKMSSLSQSMRKVQDSNAEILANYRKGQEEIVTLHAEIKAQKKELDTIQECIKVKYAPIVSFEECERKFKATEKELKDQLSEQTQKYSVSEEEVKKNKQENDKLKKEIFTLQKDLRDKTVLIEKSHEMERALSRKTDELNKQLKDLSQKYTEVKNVKEKLVEENAKQTSEILAVQNLLQKQHVPLEQVEALKKSLNGTIENLKEELKSMQRCYEKEQQTVTKLHQLLENQKNSSVPLAEHLQIKEAFEKEVGIIKASLREKEEESQNKMEEVSKLQSEVQNTKQALKKLETREVVDLSKYKATKSDLETQISSLNEKLANLNRKYEEVCEEVLHAKKKEISAKDEKELLHFSIEQEIKDQKERCDKSLTTITELQRRIQESAKQIEAKDNKITELLNDVERLKQALNGLSQLTYTSGNPTKRQSQLIDTLQHQVKSLEQQLADADRQHQEVIAIYRTHLLSAAQGHMDEDVQEALLQIIQMRQGLVC [UACA]”, the “solubility change mitosis (log2)” value with HeLa Kyoto [1] is -0.0155. Also, the melting temperature is 48.5 °C with HeLa Kyoto [2] (cell cycle stage: G1/S) and 50.6 °C in the data set on HeLa Kyoto [2] (cell cycle stage: mitosis). Further, the “solubility in G1/S (log2)” value with HeLa Kyoto [3] amounted to 0.233. The thermal stability score in the data set with HeLa Kyoto [4] (setting [5]) worked out at 1.19; in the data set on HeLa Kyoto [4] (cell cycle stage: mitosis), 0.0635.
In the case of “MKSNPAIQAAIDLTAGAAGGTACVLTGQPFDTMKVKMQTFPDLYRGLTDCCLKTYSQVGFRGFYKGTSPALIANIAENSVLFMCYGFCQQVVRKVAGLDKQAKLSDLQNAAAGSFASAFAALVLCPTELVKCRLQTMYEMETSGKIAKSQNTVWSVIKSILRKDGPLGFYHGLSSTLLREVPGYFFFFGGYELSRSFFASGRSKDELGPVPLMLSGGVGGICLWLAVYPVDCIKSRIQVLSMSGKQAGFIRTFINVVKNEGITALYSGLKPTMIRAFPANGALFLAYEYSRKLMMNQLEAY [SLC25A15]”, the “solubility change mitosis (log2)” value with HeLa Kyoto [1] was -0.0497. For the same sequence, the melting temperature in the data set on HeLa Kyoto [2] (cell cycle stage: G1/S) is 58 °C; with HeLa Kyoto [2] (cell cycle stage: mitosis) it was 56.6 °C. For the same sequence, the “solubility in G1/S (log2)” value with HeLa Kyoto [3] is 0.00397. Besides, the thermal stability score in the data set on HeLa Kyoto [4] (setting [5]) was -2.21; with HeLa Kyoto [4] (cell cycle stage: mitosis) it was -1.66.
As to “MKSRFSTIDLRAVLAELNASLLGMRVNNVYDVDNKTYLIRLQKPDFKATLLLESGIRIHTTEFEWPKNMMPSSFAMKCRKHLKSRRLVSAKQLGVDRIVDFQFGSDEAAYHLIIELYDRGNIVLTDYEYVILNILRFRTDEADDVKFAVRERYPLDHARAAEPLLTLERLTEIVASAPKGELLKRVLNPLLPYGPALIEHCLLENGFSGNVKVDEKLETKDIEKVLVSLQKAEDYMKTTSNFSGKGYIIQKREIKPSLEADKPVEDILTYEEFHPFLFSQHSQCPYIEFESFDKAVDEFYSKIEGQKIDLKALQQEKQALKKLDNVRKDHENRLEALQQAQEIDKLKGELIEMNLQIVDRAIQVVRSALANQIDWTEIGLIVKEAQAQGDPVASAIKELKLQTNHVTMLLRNPYLLSEEEDDDVDGDVNVEKNETEPPKGKKKKQKNKQLQKPQKNKPLLVDVDLSLSAYANAKKYYDHKRYAAKKTQKTVEAAEKAFKSAEKKTKQTLKEVQTVTSIQKARKVYWFEKFLWFISSENYLIIGGRDQQQNEIIVKRYLTPGDIYVHADLHGATSCVIKNPTGEPIPPRTLTEAGTMALCYSAAWDARVITSAWWVYHHQVSKTAPTGEYLTTGSFMIRGKKNFLPPSYLMMGFSFLFKVDESCVWRHQGERKVRVQDEDMETLASCTSELISEEMEQLDGGDTSSDEDKEEHETPVEVELMTQVDQEDITLQSGRDELNEELIQEESSEDEGEYEEVRKDQDSVGEMKDEGEETLNYPDTTIDLSHLQPQRSIQKLASKEESSNSSDSKSQSRRHLSAKERREMKKKKLPSDSGDLEALEGKDKEKESTVHIETHQNTSKNVAAVQPMKRGQKSKMKKMKEKYKDQDEEDRELIMKLLGSAGSNKEEKGKKGKKGKTKDEPVKKQPQKPRGGQRVSDNIKKETPFLEVITHELQDFAVDDPHDDKEEQDLDQQGNEENLFDSLTGQPHPEDVLLFAIPICAPYTTMTNYKYKVKLTPGVQKKGKAAKTALNSFMHSKEATAREKDLFRSVKDTDLSRNIPGKVKVSAPNLLNVKRK [NEMF]”, the “solubility change mitosis (log2)” value in the data set with HeLa Kyoto [1] was -0.0231. Besides, the melting temperature in the data set with HeLa Kyoto [2] (cell cycle stage: G1/S) came to 50.8 °C; in the data set on HeLa Kyoto [2] (cell cycle stage: mitosis) it was 50.2 °C. Moreover, the “solubility in G1/S (log2)” value in the data set with HeLa Kyoto [3] was -0.354. The thermal stability score with HeLa Kyoto [4] (setting [5]) was -0.477; with HeLa Kyoto [4] (cell cycle stage: mitosis), -1.01.
For “MKSYTPYFILLWSAVGIAKAAKIIIVPPIMFESHMYIFKTLASALHERGHHTVFLLSEGRDIAPSNHYSLQRYPGIFNSTTSDAFLQSKMRNIFSGRLTAIELFDILDHYTKNCDLMVGNHALIQGLKKEKFDLLLVDPNDMCGFVIAHLLGVKYAVFSTGLWYPAEVGAPAPLAYVPEFNSLLTDRMNLLQRMKNTGVYLISRLGVSFLVLPKYERIMQKYNLLPEKSMYDLVHGSSLWMLCTDVALEFPRPTLPNVVYVGGILTKPASPLPEDLQRWVNGANEHGFVLVSFGAGVKYLSEDIANKLAGALGRLPQKVIWRFSGPKPKNLGNNTKLIEWLPQNDLLGHSKIKAFLSHGGLNSIFETIYHGVPVVGIPLFGDHYDTMTRVQAKGMGILLEWKTVTEKELYEALVKVINNPSYRQRAQKLSEIHKDQPGHPVNRTIYWIDYIIRHNGAHHLRAAVHQISFCQYFLLDIAFVLLLGAALLYFLLSWVTKFIYRKIKSLWSRNKHSTVNGHYHNGILNGKYKRNGHIKHEKKVK [UGT8]”, the “solubility change mitosis (log2)” value with HeLa Kyoto [1] is -0.0716. In the data set with HeLa Kyoto [2] (cell cycle stage: mitosis), this sequence registered a melting temperature of 53.8 °C. The “solubility in G1/S (log2)” value in the data set with HeLa Kyoto [3] was -0.021. The thermal stability score in the data set with HeLa Kyoto [4] (setting [5]) is 0.353; with HeLa Kyoto [4] (cell cycle stage: mitosis) it was -0.0434.
For “MKVKMLSRNPDNYVRETKLDLQRVPRNYDPALHPFEVPREYIRALNATKLERVFAKPFLASLDGHRDGVNCLAKHPEKLATVLSGACDGEVRIWNLTQRNCIRTIQAHEGFVRGICTRFCGTSFFTVGDDKTVKQWKMDGPGYGDEEEPLHTILGKTVYTGIDHHWKEAVFATCGQQVDIWDEQRTNPICSMTWGFDSISSVKFNPIETFLLGSCASDRNIVLYDMRQATPLKKVILDMRTNTICWNPMEAFIFTAANEDYNLYTFDMRALDTPVMVHMDHVSAVLDVDYSPTGKEFVSASFDKSIRIFPVDKSRSREVYHTKRMQHVICVKWTSDSKYIMCGSDEMNIRLWKANASEKLGVLTSREKAAKDYNQKLKEKFQHYPHIKRIARHRHLPKSIYSQIQEQRIMKEARRRKEVNRIKHSKPGSVPLVSEKKKHVVAVVK [DCAF13]”, the “solubility change mitosis (log2)” value with HeLa Kyoto [1] was 0.446. Also, the melting temperature with HeLa Kyoto [2] (cell cycle stage: G1/S) worked out at 54.8 °C. The “solubility in G1/S (log2)” value in the data set with HeLa Kyoto [3] was -2.16. For the same sequence, the results for the thermal stability score in the data set on HeLa Kyoto [4] (setting [5]) and in the data set with HeLa Kyoto [4] (cell cycle stage: mitosis) were -1.4 and -1.29, respectively.

Values taken from the supplement of paper PMC5998384.
